# pKd: −log10 of the molar value.
# Tests used:
# [1] = molecular target: HLA-A*01:01; assay: IEDB peptide-MHC binding, purified MHC/direct/fluorescence; filed as Kd, often an IC50 or EC50 that approximates it; ≥ and ≤ were set here for values at or beyond the usual limits of such assays
# [2] = molecular target: HLA-A*02:01; assay: as above
# [3] = molecular target: HLA-A*03:01; assay: as above
# [4] = molecular target: HLA-A*24:03; assay: as above
# [5] = molecular target: HLA-A*26:01; assay: as above
# [6] = molecular target: HLA-A*30:01; assay: as above
# [7] = molecular target: HLA-A*69:01; assay: as above
# [8] = molecular target: HLA-B*07:02; assay: as above
# [9] = molecular target: HLA-B*08:01; assay: as above
# [10] = molecular target: HLA-B*15:01; assay: as above
# [11] = molecular target: HLA-B*27:05; assay: as above
# [12] = molecular target: HLA-B*35:01; assay: as above
# [13] = molecular target: HLA-B*40:01; assay: as above
# [14] = molecular target: HLA-B*44:02; assay: as above
# [15] = molecular target: HLA-B*58:01; assay: as above
# [16] = molecular target: HLA-A*11:01; assay: as above
# [17] = molecular target: HLA-A*26:02; assay: as above
# [18] = molecular target: HLA-A*26:03; assay: as above
# [19] = molecular target: HLA-A*31:01; assay: as above
# [20] = molecular target: HLA-A*68:02; assay: as above
# [21] = molecular target: HLA-B*15:17; assay: as above
# [22] = molecular target: HLA-B*18:01; assay: as above
# [23] = molecular target: HLA-B*39:01; assay: as above
# [24] = molecular target: HLA-B*48:01; assay: as above
# [25] = molecular target: HLA-B*57:01; assay: as above
# [26] = molecular target: HLA-B*73:01; assay: as above; settings: source organism: Vibrio vulnificus YJ016
# [27] = molecular target: HLA-B*08:02; assay: as above; settings: source organism: Giardia lamblia ATCC 50803
# [28] = molecular target: HLA-B*46:01; assay: as above; settings: source organism: Giardia lamblia ATCC 50803
# [29] = molecular target: HLA-A*01:01; assay: IEDB peptide-MHC binding, purified MHC/competitive/fluorescence; filed as Kd, often an IC50 or EC50 that approximates it; ≥ and ≤ were set here for values at or beyond the usual limits of such assays; settings: source organism: Giardia lamblia ATCC 50803
# [30] = molecular target: HLA-A*68:02; assay: as above; settings: source organism: Giardia lamblia ATCC 50803
# [31] = molecular target: HLA-B*15:01; assay: as above; settings: source organism: Giardia lamblia ATCC 50803
# [32] = molecular target: HLA-B*15:17; assay: as above; settings: source organism: Giardia lamblia ATCC 50803
# [33] = molecular target: HLA-B*57:01; assay: as above; settings: source organism: Giardia lamblia ATCC 50803
# [34] = source organism: Giardia intestinalis
# [35] = source organism: Influenza A virus (A/swine/Italy/809/1989(H3N2))
# [36] = source organism: Influenza A virus H3N2
# [37] = source organism: Giardia lamblia ATCC 50803
# [38] = source organism: Vibrio vulnificus YJ016
# [39] = source organism: Escherichia coli O157:H7
# [40] = source organism: Rickettsia prowazekii
sequence,measurement,setting,value
DYAMHGTVF,pKd,[1]; [34],≤ 4.70
same,pKd,[2]; [34],≤ 4.70
same,pKd,[3]; [34],≤ 4.70
same,pKd,[4]; [34],5.63
same,pKd,[5]; [34],≤ 4.70
same,pKd,[6]; [34],≤ 4.23
same,pKd,[7]; [34],≤ 4.70
same,pKd,[8]; [34],5.06
same,pKd,[9]; [34],4.84
same,pKd,[10]; [34],5.42
same,pKd,[11]; [34],≤ 4.70
same,pKd,[12]; [34],7.21
same,pKd,[13]; [34],≤ 4.70
same,pKd,[14]; [34],≤ 4.70
same,pKd,[15]; [34],≤ 5.00
EEIRRIWRQ,pKd,[1]; [35],≤ 4.70
same,pKd,[2]; [35],≤ 4.70
same,pKd,[3]; [35],≤ 4.70
same,pKd,[16]; [35],≤ 4.70
same,pKd,[17]; [36],≤ 4.70
same,pKd,[18]; [36],≤ 4.70
same,pKd,[19]; [35],≤ 4.70
same,pKd,[20]; [35],≤ 4.70
same,pKd,[7]; [35],≤ 4.70
same,pKd,[8]; [35],≤ 4.70
same,pKd,[10]; [35],≤ 4.70
same,pKd,[21]; [35],≤ 4.70
same,pKd,[22]; [35],5.04
same,pKd,[11]; [35],≤ 4.70
same,pKd,[23]; [36],≤ 4.70
same,pKd,[13]; [35],≤ 4.70
same,pKd,[14]; [35],≤ 4.70
same,pKd,[24]; [35],≤ 4.70
same,pKd,[25]; [35],≤ 4.70
same,pKd,[15]; [35],≤ 4.70
FMGRLGPEY,pKd,[1]; [37],5.39
same,pKd,[2]; [37],≤ 4.70
same,pKd,[3]; [37],≤ 4.70
same,pKd,[16]; [37],≤ 4.70
same,pKd,[4]; [37],≤ 5.30
same,pKd,[5]; [37],≤ 4.70
same,pKd,[6]; [37],4.79
same,pKd,[19]; [37],≤ 4.70
same,pKd,[7]; [37],≤ 4.70
same,pKd,[9]; [37],≤ 4.70
same,pKd,[10]; [37],6.86
same,pKd,[11]; [37],≤ 4.70
same,pKd,[12]; [37],6.93
same,pKd,[13]; [37],≤ 4.70
same,pKd,[14]; [37],≤ 4.70
same,pKd,[15]; [37],≤ 4.70
KRFYQTVGF,pKd,[1]; [38],≤ 4.70
same,pKd,[2]; [38],≤ 4.70
same,pKd,[3]; [38],≤ 4.70
same,pKd,[16]; [38],≤ 4.70
same,pKd,[17]; [38],≤ 4.70
same,pKd,[18]; [38],≤ 4.70
same,pKd,[19]; [38],≤ 4.70
same,pKd,[20]; [38],≤ 4.70
same,pKd,[7]; [38],≤ 4.70
same,pKd,[8]; [38],≤ 4.70
same,pKd,[9]; [38],≤ 4.70
same,pKd,[10]; [38],≤ 4.70
same,pKd,[21]; [38],≤ 4.70
same,pKd,[22]; [38],≤ 4.70
same,pKd,[11]; [38],7.05
same,pKd,[23]; [38],≤ 4.70
same,pKd,[24]; [38],≤ 4.70
same,pKd,[25]; [38],≤ 4.70
same,pKd,[15]; [38],≤ 4.70
same,pKd,[26],5.40
KSNRIPFLY,pKd,[2]; [37],≤ 4.70
same,pKd,[3]; [37],7.66
same,pKd,[16]; [37],8.15
same,pKd,[5]; [37],≤ 4.70
same,pKd,[17]; [37],≤ 4.70
same,pKd,[18]; [37],≤ 4.70
same,pKd,[19]; [37],5.62
same,pKd,[8]; [37],≤ 4.70
same,pKd,[9]; [37],≤ 4.70
same,pKd,[27],≤ 4.70
same,pKd,[22]; [37],≤ 4.70
same,pKd,[11]; [37],≤ 4.70
same,pKd,[13]; [37],≤ 4.70
same,pKd,[28],≤ 4.70
same,pKd,[24]; [37],≤ 4.70
same,pKd,[15]; [37],8.70
same,pKd,[29],6.69
same,pKd,[30],≤ 4.70
same,pKd,[31],6.67
same,pKd,[32],8.00
same,pKd,[33],6.61
PSSKPDWFY,pKd,[1]; [39],7.71
same,pKd,[2]; [39],≤ 4.70
same,pKd,[3]; [39],≤ 4.70
same,pKd,[16]; [39],≤ 4.70
same,pKd,[4]; [39],≤ 4.70
same,pKd,[5]; [39],≤ 4.70
same,pKd,[19]; [39],≤ 4.70
same,pKd,[7]; [39],≤ 4.70
same,pKd,[8]; [39],≤ 4.70
same,pKd,[9]; [39],≤ 4.70
same,pKd,[10]; [39],4.82
same,pKd,[11]; [39],≤ 4.70
same,pKd,[12]; [39],5.98
same,pKd,[13]; [39],≤ 4.70
same,pKd,[14]; [39],≤ 4.70
same,pKd,[15]; [39],≤ 4.70
QFAGGSFDF,pKd,[1]; [40],≤ 4.70
same,pKd,[2]; [40],≤ 4.70
same,pKd,[3]; [40],≤ 4.70
same,pKd,[16]; [40],≤ 5.00
same,pKd,[4]; [40],6.47
same,pKd,[5]; [40],≤ 4.70
same,pKd,[7]; [40],≤ 4.70
same,pKd,[8]; [40],≤ 4.70
same,pKd,[9]; [40],≤ 4.70
same,pKd,[10]; [40],6.46
same,pKd,[12]; [40],7.85
same,pKd,[13]; [40],≤ 4.70
same,pKd,[14]; [40],≤ 4.70
same,pKd,[15]; [40],7.38
